The DeepSol protein solubility set

Assay: soluble on expression in E. coli; label from the status in PepcDB or PDB records

Row | Sequence | soluble on expression in E. coli
1 | MARKSKGSRSSTRAVKQTDHFQVDVKLQSRPDHVRAPRANNENVNYTPVKEAKIQKILDHQLYNTHYVEYQVEMSDGTEEMLTEFDFDNKKTQKMLAEYKFKVTELEDDGSKEYVVEKIVAHRYPNDRLNQPLYLVMWRGFPDPVSNTEMWGEELENCQELLDAYNEEHDIDLSKTVMNKPPKKSKHQDTSDDSEESEDEEEKSPRKRSSKKRRAASVSDSDSDSDSDFDKKKWKKNKAKRSKRDDSSDDDSEMERRRKKSKKSKKSKKFKKSEKRKRAVNDSSSDDEDEEEKPEKRSKKSKKAVIDSSSEDEEEEKSSKKRSKKSKKESDEEQQASDSEEEVVEVKKNSKSPKKTPKKTAVKEESEESSGDEEEEVVKKKKSSKINKRKAKESSSDEEEEVEESPKKKTKSPRKSSKKSAAKEESEEESSDNEEEEEVDYSPKKKVKSPKKSSKKPAAKVESEEPSDNEEEEEEVEESPIKKDKTPRKYSRKSAAKVESTESSGNEEEEEVEESPKKKGKTPRKSSKKSAAVEESDNEEEDVEESPKKRTSPRKSSKKRAAKEESEESSDNEVEEVEDSPKKNDKTLRKSPRKPAAKVESEESFGNEEEEEVEESPKKKGKTPRKSSKKSAAKEESEESSDDEEEEQAEETNGSHTESPTKSKTDESDNSTSSDEDDE | not soluble
2 | NELSQERTARLNELQRALVMMDSDFRQIALRQTRTNGEEPSKKLLHWADYLLDSDNKGIMFARLGWHNPQQQFPRGEVTKVGYRIKDERLERVWWRYPDTPAGQEGVVTPLLSDVEELNVRFYDGKQWINEWSNELTLPAAISVELTLKDYGKIARTYLTPEGN | soluble
3 | MSKIAIIGATGRAGSQLLEEALRRGHSVTAIARNTAKIGSRAGVVSRDVDVADSAALQAAVAGHDVVISAAHFSSIAANAIIDPVKKAGVKRLLVVGGAGSLLLPGGSKVIDSPGFPEEYKAEASAGGVYLETLRKEQDLDWTFLSPSAEFVEGERTGHFRLGQDDLLVSAEGRSWITFADYAIAMLDEVEKPAHSRQRFTVGYLEHHHHHH | not soluble
4 | MAHHHHHHMSFKQVFLRDNEECQAFPWDALTHPSQSAGEERRTIHHHLAWPAVCEREEAVMGTQPARKVSELTSVSFFLQPPFAIPRRKTGRSSLGCRHDRPLYAAGSAGPRCGDKPTLFVGAAEADFCDDMGWRQRSNSPVSSVEHNAEDDGEDFDVEPVVLKRSLSEKDRRKRLHLSEMSARLCHAFAMKPFRLACGLGLDESDDGVGMENQSGWGAGEEAAVPLREKDDDDDTTPARQTAPISETQRGNTALNFTDNDLSVVRAIALALMEEGEKKRRQEMRRKTN | not soluble
5 | MSLNKAVLHDHLDGGLRAKTAKELAIKDSYKPLIEIEDIESFFNRESSTSLEDYLEAFVHTTALMSNYDNLERIAFEAAEDMMHFCGITLYESRYAPLYSVNNNLLIKDVLHAINSGFKQAENMYGIKSGLILCGMRNDKDNVSQVSEIAIDFKDQIIGFDIAMGPEYNFLPSLFADEFNKLKNNGINLTIHAGEGDGVNSIQDALDNGAKRIGHGVRIIEDIDTSSKKLGKTAEYVRNKQVPLMEVCITSNIHTNMYEEYNKHPIKDLIDLEFNVSINTDNRLMSNTSMKKEIDIAKNLGINNIDRILENSASYSFLNDFEGHHHHHH | soluble
6 | MGSDKIHHHHHHMNRLRYSVNLSYEILDPTGDFLLIVEAAKTARQSVVSERLALTPPAHAARYTDPLGNRLLRIRANKGPLAIRYEAVVDIDHRLDDGMSLTEVPVAELPFDVLSYLAPSRYCESDRMMEFAMREFGSMRPGYSRVYAIREWVRNHVRFLSRSTNERTSAIDTIVERTGVCRDFSHLMIAICRALSIPARMSSSVDYGADPALGAPDFHAVVEVFLSGGWYLLDPSGVSIPTGLLRIGTGRDAADIPFAAIFGKVESKRPFIEIQPIADPVAGIGLPLATTSAISTW | not soluble
7 | MGSDKIHHHHHHMAVSSLAGLGLRREMLAEFSQSVPAQIDFFEVAPENWMALGGKYGKQFRALTERHAFFCHGLSLSIGSSAPLDIDFIKGIKAFLDLHGIAVYSEHLSYCSGSGHLYDLMPMPFTPEAVRHIAGRVKQVEDIIERPLILENISFYAAPGAQMTELEFVLAVLEEADCQLLLDVNNIYVNSINHNYDAAAYLAAMPTERIRYLHVAGHYVEAPDLIVDTHGADIVDPVWQLLCDCYALHGPLPTLLERDFNIPPIGELLQEIDRIRDYQAAAIRTSRRAG | not soluble
8 | GSHMKVDITIKIQRDGQEIEIDIRVSTGKELERALQELEKALARAGARNVQITISAENDEQAKELLELIARLLQKLGYKDINVRVNGTEVKIEVRV | soluble
9 | MKLSATIAIILLNWNGWRDTVDCVESCRKLDYPNFRIVIVDNGSTDGSEAILRERFPDVELIQTGANLGFAGGNNAGIRHALVRGADYVWLLNNDTVVEPGALGALVRVAESDPRVGMVGSKIVYFDDPWLLWFAGAVIDPERPHRPFHRGLHERDTGQYDRVAETGYVTGCSLLARREMMAEVGMLDDDLFLYFEDADWSARAARAGWKLLYVPDSVVRHKESVSSGGAASPRLVYYTARNRLYFVRRNFPAKLAAALCYDLFEHVLVNVKKGRFPLAVAGCRGIRDFLAGKIGPMPLEHHHHHH | soluble
10 | MFAIISVTGADHTGIIAAVATKCADLGVNINNVSQTIMDGYFTMILHVSFDDSATDIATIQESMADVEKDQNLVIRIQSQAIFDAMNII | not soluble
11 | MVRTVKSYNGEADDLAGQIHTLPAVWVTYGGSKVEPASTGGVCGRYQDTAEFVVMVAARNLRNEQAQRQGGIDSREIGSNDLIRAVRRLLDGQRLGFADSRGLVPKAVRAIANHVLVQNAAVSIYAVEYAIRFNTCGLENDRYPERTDNPDDPNHIFTKYQGTLSEPWPDFEGLDGKIYDPQSADEIPVNLTLKDKQ | not soluble
12 | MVKGDITTAFIAEEYPDGFQGAVLDEPTLRRVAAAAAAMNRVAEIRRTRISGTMNNHERHVGVDWVVALQGESYHVSIAADREGSTVSFSDGSSLRVTSDWTPGQPLEHHHHHH | not soluble
13 | GMCVEKTPWELVIDFHGHTCPDIALGYRIAQLAQREMGIRPAPDSECLVKAYTQSCALDAIQVLNKATIGRHALIIEETHRYMYQFHFTGTQDIHQFTVSPAVLDHLETLRHPDLSPRERQNKVLEGVQYVLTLEESAFCHYDKIPGQLSKIV | soluble
14 | MKPHFRNTVERMYRDTFSYNFYNRPILSRRNTVWLCYEVKTKGPSRPPLDAKIFRGQVYSELKYHPEMRFFHWFSKWRKLHRDQEYEVTWYISWSPCTKCTRDMATFLAEDPKVTLTIFVARLYYFWDPDYQEALRSLCQKRDGPRATMKIMNYDEFQHCWSKFVYSQRELFEPWNNLPKYYILLHIMLGEILRHSMDPPTFTFNFNNEPWVRGRHETYLCYEVERMHNDTWVLLNQRRGFLCNQAPHKHGFLEGRHAELCFLDVIPFWKLDLDQDYRVTCFTSWSPCFSCAQEMAKFISKNKHVSLCIFTARIYDDQGRCQEGLRTLAEAGAKISIMTYSEFKHCWDTFVDHQGCPFQPWDGLDEHSQDLSGRLRAILQNQEN | soluble
15 | MKITDLRCAVIGKHPIVRIVTDEGLHGLGEVEFTKTYLKPFVLHFREALIGEDPTDVERVMLKIRQRGSFKPYGAAVSAIEHALWDIAGKAAGVPVYKLLGGKVRDKVRVYNGSIRRKRAGDRPEDYAADVKWMMEQPQNFFMVKQGISFHSNMKDSIEGFHYGVTQKKAGYHGAMDQGVISERGFNHMLDCVIAMKEVLGDKVSLALDCGPGWMLPDAIKFARAVEKYNLMWLEDMLTGDYVPWVNPQAYRELTTSTSTPIHTGEQIYLRHNFKELIETQAVRVIGPDPADIGGIAELKWVAEHAYMHSILMAPHGTANGLLGLGALINVCATLPANYVAFEYPSASDPWWEDLVIGLPAQIVRDSMVDLLEAPGLGLDIDAEAARKYLGEEDAGFFD | not soluble
16 | MSLKKIQFFDTTLRDGEQTPGVNFDVKEKIQIALQLEKLGIDVIEAGFPISSPGDFECVKAIAKAIKHCSVTGLARCVEGDIDRAEEALKDAVSPQIHIFLATSDVHMEYKLKMSRAEVLASIKHHISYARQKFDVVQFSPEDATRSDRAFLIEAVQTAIDAGATVINIPDTVGYTNPTEFGQLFQDLRREIKQFDDIIFASHCHDDLGMATANALAAIENGARRVEGTINGIGERAGNTALEEVAVALHIRKDFYQAETNIVLNQFKNSSDLISRLSGMPVPRNKAVIGGNAYAHESGIHQDGVLKNPDTYEIITPALVGVDKNSLPLGKLSGKHAFNTRMEEMGYTLTEQEQKDAFKRFKQLADAKKEVTEEDLHALILGQSSESADDFELKHLQVQYVTGGVQGAIVRIEERDGALVEDAATGSGSIEAIYNTINRLMKQDIELTDYRIQAITAGQDAQAEVHVVIKNDKGAVFHGIGIDFDVLTASAKAYLQASGKSKTASKQADFEEVKEGHHHHHH | not soluble
17 | TGRVKWTLGGNIYLNRNKVDDISGNELLGTSYLAGGGVFSQSIHITKAGYPVGSFYGYVVDGVYQNEAEAKLAPFDTPQATPGSLRFKDISGPDGLPDGKITSDDMTIIGTAEPKFNYGINSELSWKGLTLSMIFTGRVGGDIANLNRYFLDSFTDTNDNIRAEAWEGRWQGEGTSNFYPAVNGSQGSSYFNKRFSTFLLEDGSFFRLKNLTLAYQFSLKKLRWLRSVRVFGTVTNVFTITNYSGYDPEVSITSGAMSPNVDYAAYPSSRTYSMGINLAF | not soluble
18 | QTLLNVTLESESMAVDEVVVSARRLNRNDLGISDKEMVSATQKVDMEKLIAAAPVVSIEEALQGQLGGVDIVLGGDPGSRSAIRIRGTSTLNASSDPLIVIDGVPYPTEISDDFNFSTATEEDLGALLNISPNDIASVEVLKDASATAIWGTQGANGVLVIKTKQGT | not soluble
19 | MSLAAGRSSTSGLVAPDIENPFFPEIIRAFQESTNLSGLEAVGMNTAYDAQRTRGVIERPVSLQVPGAAFFTTQVDSGIKNALAARNIAGVYMDYGDAAPGISSIAVNYPEGMLQAITHLRDLGHRRIGLVGGPAHGAGAQRRKAAFLEGLKTNGIEGRATESDFSVQGGYFSCSKLLASYDCTAVIAANDLMAIGALHLAYDRQIAVPAQLSIIGFDDITFAKFTQPALTTVAVPRAEIGRVAFECRLALMKDPGAAGESHEIPTHLVVRQTTASVGEGHHHHHH | not soluble
20 | GGQFIAFLRNITERKRAEALHRMGQDILLALNENEDMKEAIQRVLGLLRSATGVDAVGIRLQDGDDFPYFYQEGFPPDFLQKEDSIVARNKDGGVCRDSCGNVCLECTCGMVISGSTDHANPLFTPGGSAWTNDSFPYLEVPADQDPRTTPRDECIHQGYASIALIPIRAKGRIVGLLQLNDRRKGRFTREGIEALEDIAKNIGEAMLRKQAEEKLVASERFLRMLTNQLPGMVGYWDRD | not soluble
21 | MKKMAFAAIALGLVACAPAQQQRLVYPPTVEVERIQLTSFSLPAPGRAAVAGVRLELNVDNPNPLPVRLVQLAGVLVLDGQEAGTVTVPDIRLPGQGRARQVAQLTLPVTFKTATTFLNIARGQEVSYRLDGTLTADLGPLGQPTFGPFTLTQGVWKQAPLSVF | soluble
22 | MAEETDVIVVGAGLSGLVAATEIADAGKRVIVVDQEGEQSVGGQAFWSFGGLFLVNSPEQRRLGIKDSFDLAMQDWLGTAGFDRDEDHWPRKWAEAYVAFAAGEKRDWLHAMGHRILPVVGWAERGGYDAMGHGNSVPRFHVTWGTGPGIVEPFERRAREAMKSGRLIFKFRHRVDALSITNGTVDGVSGAVLAPDNVERGKSSSRNVVGEFALKAQAVIVASGGIGGNHELVRQNWPKRLGEPPKFMISGVPEHVDGRMIGITEQAGARLINRDRMWHYVEGIQNWSPIWPRHGIRILPGPSSMWFDATGTRLPAPLFPGSDTLGQLKYIMSTGHDYSWFILTQSIIKKEFALSGSEQNPDLTGKSWRMTLRRATNKGAPAPVEAFKSHGVDFIVRDKIDDLVTAMNKLAGSDLLRLEHIKMQIEARDREIANPYVKDAQVMNIHNARRYIGDKLIRTASPHRILDPAHGPLIAVKLNILTRKTLGGFETDLDSRVFGGEGSIIPGLYAVGEAAGFGGGGVHGYRSLEGTFLGGCLFSGRNAGRAAAKAVG | not soluble
